Measurements taken from paper PMC9927002 (Frontiers in Immunology, 2023).

B1: 3B7 (antibody, V domains shown)
VH: QMQLVQSGAEVKKPGASVRVSCKVSGYSLTELPMHWVRQAPGKGLEWVGSFDPQDAETTYAQRFQGRVAMTEDTSTDTAYMELSSLRSEDTAVYYCATPAPTIVGVVIYALHIWGQGTMVTVSS
VL: EIVLTQSPGTLSLSPGERATLSCRASQRVSDNSLAWYQQKPGQAPSLLIFAASIRAPGIPDRISGTGSGTDFTLTINRLEPEDFVVYFCLQYTTSPPLTFGGGTKLEIK
notes: also called 3B7 hmAb
B2: N3 (antibody, V domains shown)
VH: QMQLVQSGAEVKRPGSSVKVSCKASGGTFSVYAISWVRQAPGQGLEWMGGIIPIFGTANYAQKFQGRVTLTADESTSTAYMELSSLSSEDTAVYYCARGGYCSGANCPKWGEWSHSYNYMDVWGKGTTVTVSS
VL: not shown
notes: also called N3 hmAb
B3: N83 (antibody, V domains shown)
VH: QVQLQESGPRLVKSSETLSLTCTVSGGSISSGSYYWNWIRQPAGKGLEWIGRVYISGVTSYNPSLKSRVTISLDISKNQFSLQLTSVTAADSAVYYCARGGMAVGAPLYYYFYGMDVWGQGTTVTVSS
VL: DVVMTQSPLSLPVTPGEPASISCRSSQSLLHSNGYNYVDWYLQKPGQSPQLMIYLGSNRASGVPDRFSGSGSGTHFTLKISRVEAEDVGVYYCMQALQTLSITFGQGTRLEIK
notes: also called N83 hmAb
B4: N31 (antibody, V domains shown)
VH: QMQLVQSGAEVKKPGSSVKVSCKASGGTFSSYGISWVRQAPGQGLEWMGGIIPILGTANYAQRFQGRIALTADESTSTAYMEVSSLRSEDTAVYYCARGMWSNPPGYCCSYMDVWGKGTTVTVSS
VL: EIVLTQSPATLSVSPGERVTLACRASQSLRSKLAWYQQKPGQAPRLLIYDASTRATGFPARFSGSGSGTEFTLTISSLQSEDFAVYYCQQYSNWPRTFGQGTKLEIK
notes: also called N31 hmAb
B5: N5 (antibody, V domains shown)
VH: QVQLVQSGAEVKKPGSSVKVSCKASGGTFSSYAIGWVRQAPGQGLEWMGAIIPIFGTTIFAQKFQGRVTITADESTTTAYMELSSLRSDDTAVYYCARGGGGVERGVILTRWFDPWGQGTLVTVSS
VL: QSVLTQPPSVSAAPGQKVTLSCSGSSSNIGNNHVSWYQQLPGTAPKLLIYDNNKRPSGIPDRFSGSKSGTSATLGITGLQTGDEADYYCGTWDNSLSAGVFGGGTKLTVV
notes: also called N5 hmAb

Key:
Settings in all cases: one partner purified
[1] = biological target: T1, full-length N protein of HKU1 (HCoV-HKU1 isolate N1, NC_006577.2, UniProt Q5MQC6); assay: ELISA
T1 construct: also called HKU1 N; source: 293T cells, transfected (pcDNA3.1), in culture supernatant; not shown: D7-tag, C-terminal, kept

[2] = biological target: T2, full-length N protein of SARS-CoV (SARS-CoV, NC_004718.3 (Tor2), UniProt P59595); assay: ELISA
T2 construct: also called SARS-CoV N; source: 293T cells, transfected (pcDNA3.1), in culture supernatant; not shown: D7-tag, C-terminal, kept

[3] = biological target: T3, full-length SARS-CoV-2 nucleocapsid (N) protein (SARS-CoV-2, NC_045512.2 (Wuhan-Hu-1), UniProt P0DTC9); assay: BLI
T3 construct: also called SARS-CoV-2 N protein; SARS-CoV-2 N/D7-Tag; not shown: D7-tag, C-terminal, kept

Binder | binding result [1] | binding result [2] | Kd [3] | koff [3] | kon [3]
B1 | no binding (tested: 10 µg/ml) | binds | 1.94 nM | 0.000689 s⁻¹ | 355000 M⁻¹ s⁻¹
B2 | no binding (tested: 10 µg/ml) | binds | < 0.001 nM | < 1e-07 s⁻¹ | 157000 M⁻¹ s⁻¹
B3 | no binding (tested: 10 µg/ml) | binds | 1.76 nM | 0.00113 s⁻¹ | 639000 M⁻¹ s⁻¹
B4 | no binding (tested: 10 µg/ml) | binds | < 0.001 nM | < 1e-07 s⁻¹ | 174000 M⁻¹ s⁻¹
B5 | no binding (tested: 10 µg/ml) | binds | < 0.001 nM | < 1e-07 s⁻¹ | 137000 M⁻¹ s⁻¹
